The record followed here is PMC12221297, “Negative regulation of miRNA sorting into EVs is mediated by the capacity of RBP PCBP2 to impair the SYNCRIP-dependent miRNA loading”.

This series addresses PCBP2 recombinant (Origene TP522190) (Mus musculus, UniProt Q61990 1-362). The series can be described thus: pull-down; EMSA: REMSA binding buffer (LightShift kit), 4 ug extract, 0.5 pmol biotin-RNA, 30 min room temperature, native 6% PAGE 0.5x TBE; pull-down: streptavidin beads. The settings on record: protein: commercial; label: 5' biotin. (In general: Mobility shift assays separate free from complexed probe on a gel.)

Sequence of PCBP2 recombinant (Origene TP522190) (Q61990 whole entry): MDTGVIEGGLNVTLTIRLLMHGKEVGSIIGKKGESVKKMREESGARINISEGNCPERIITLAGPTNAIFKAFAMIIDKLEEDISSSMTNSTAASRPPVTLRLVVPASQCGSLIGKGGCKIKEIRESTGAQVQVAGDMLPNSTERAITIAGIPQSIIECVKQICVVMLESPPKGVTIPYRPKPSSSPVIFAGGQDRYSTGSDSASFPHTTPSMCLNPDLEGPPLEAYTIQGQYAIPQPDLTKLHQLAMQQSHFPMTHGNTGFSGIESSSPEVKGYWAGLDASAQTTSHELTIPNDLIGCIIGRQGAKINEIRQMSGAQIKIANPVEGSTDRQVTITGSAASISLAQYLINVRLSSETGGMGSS

Turning to CUCCUACCUGUUAGCAUUAAC (ssRNA) [miR-155-3p WT (Table 1: miR-155b-3p WT)], the binding result is “binds”.
